Laboratory results taken from the supplement of paper PMC7877785.
± gives the uncertainty stated by the source.

Assay: self-splicing fitness, log relative to wild type (ln ratio); higher = more splicing; Tetrahymena group I intron in knt gene, E. coli kanamycin selection, DiMSum; sequences stand for … in CUCUCU…GGAGGGAAAAGUUAUCAGGCAUGCACCUGGUAGCUAGUCUUUAAACCAAUAGAUUGCAUCGGUUUAAAAGGCAAGACCGUCAAAUUGCGGGAAAGGGGUCAACAGCCGUUCAGUACCAAGUCUCAGGGGAAACUUUGAGAUGGCCUUGCAAAGGGUAUGGUAAUAAGCUGACGGACAUGGUCCUAACCACGCAGCCAAGUCCUAAGUCAACAGAUCUUCUGUUGAUAUGGAUGCAGUUCACAGACUAAAUGUCGGUCGGGGAAGAUGUAUUCUUCUCAUAAGAUAUAGUCGGACCUCUCCUUAAUGGGAGCUAGCGGAUGAAGUGAUGCAACACUGGAGCCGCUGGGAACUAAUUUGUAUGCGAAAGUAUAUUGAUUAGUUUUGGAGUACUCGUGGUCG
Outline: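 Pooled colonies went to amplicon sequencing on an Illumina HiSeq 2500 after six replicate transformations. The plates were LB agar with 100 μg/mL carbenicillin, 50 μM IPTG and 0.2% rhamnose, with or without 25 μg/mL kanamycin, incubated overnight at 37°C or 30°C. The E. coli BL21(DE3) library had all eight P1ex-region intron nucleotides randomised, the intron placed in the knt kanamycin-resistance gene on pET-22b(+). DiMSum fitness is the error-weighted combination of replicate fold changes, kanamycin against none, normalised to wild type.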

Row | Sequence | self-splicing fitness (ln) (30 °C) | self-splicing fitness (ln) (37 °C)
1 | AAGAAGCAAUAUUACGGGUU | -1.57 ± 0.15 | -1.41 ± 0.14
2 | UUUAAGCAAUAUUACGCGUU | -2.79 ± 0.19 | -2.51 ± 0.23
3 | AUGCAGCAAUAUUACGAAUA | -2.68 ± 0.2 | -1.68 ± 0.16
4 | UUUCAGCAAUAUUACGAAAG | -3.23 ± 0.24 | -1.87 ± 0.22
5 | GCACAGCAAUAUUACGCUGU | -3.33 ± 0.14 | -2.23 ± 0.17
6 | UGCGAGCAAUAUUACGUGAC | -3.73 ± 0.36 | -2.31 ± 0.26
7 | GGGGAGCAAUAUUACGUUCU | -2.67 ± 0.43 | -0.226 ± 0.35
8 | UAUUAGCAAUAUUACGUUUA | -1.6 ± 0.21 | 0.132 ± 0.2
9 | UACAAGCAAUAUUACGUCAC | -3.37 ± 0.2 | -2.41 ± 0.17
10 | GGCGAGCAAUAUUACGGGCG | -0.296 ± 0.12 | 0.0537 ± 0.14
11 | UGCUAGCAAUAUUACGUGGG | -3.58 ± 0.27 | -3.28 ± 0.35
12 | GGCAAGCAAUAUUACGCUAU | -0.0842 ± 0.13 | -1.13 ± 0.11
13 | UGCAAGCAAUAUUACGUAGU | -3.83 ± 0.18 | -2.42 ± 0.17
14 | GCCGAGCAAUAUUACGGUAG | -1.99 ± 0.15 | -3.24 ± 0.33
15 | CCUAAGCAAUAUUACGGGAA | -3.52 ± 0.22 | -1.83 ± 0.2
16 | CUUAAGCAAUAUUACGGCGC | -3.46 ± 0.37 | -2.7 ± 0.28
17 | ACUAAGCAAUAUUACGCAAG | -1.79 ± 0.074 | -1.49 ± 0.096

Row | Sequence | self-splicing fitness (ln) (30 °C) | self-splicing fitness (ln) (37 °C)
18 | AUUAAGCAAUAUUACGGGUU | -2.34 ± 0.23 | -2.92 ± 0.38
19 | CGUCAGCAAUAUUACGUAAU | -2.93 ± 0.17 | -1.2 ± 0.13
20 | GGUUAGCAAUAUUACGGUGA | -1.49 ± 0.13 | -0.0195 ± 0.13
21 | UAUCAGCAAUAUUACGUACA | -0.141 ± 0.058 | -0.199 ± 0.07
22 | GUUAAGCAAUAUUACGCAGG | -3.11 ± 0.38 | -2.47 ± 0.31
23 | GCUUAGCAAUAUUACGAGCU | -2.37 ± 0.19 | -1.89 ± 0.34
24 | UCUAAGCAAUAUUACGCUAU | -3.62 ± 0.31 | -3.37 ± 0.28
25 | AGGAAGCAAUAUUACGCGCA | -0.555 ± 0.13 | 0.268 ± 0.16
26 | GACGAGCAAUAUUACGAGGC | -3.33 ± 0.18 | -2.85 ± 0.29
27 | ACCCAGCAAUAUUACGCCCA | -0.605 ± 0.12 | -0.4 ± 0.13
28 | CCAUAGCAAUAUUACGAAGG | -3.26 ± 0.22 | -2.87 ± 0.34
29 | CCCCAGCAAUAUUACGGCCC | – | -1.64 ± 0.47
30 | GUGGAGCAAUAUUACGGUCG | -4.21 ± 0.43 | -1.5 ± 0.45
31 | GGACAGCAAUAUUACGUUAA | -0.204 ± 0.07 | 0.00356 ± 0.08
32 | GCCCAGCAAUAUUACGGACC | -3.47 ± 0.23 | -2.94 ± 0.31
33 | GAUCAGCAAUAUUACGACCG | -1.01 ± 0.11 | -0.323 ± 0.14
